Reference: PMC3798605 (2013)

Assays:
TbPIP39 wild type [1] = biological target: T1, TbPIP39 wild type (Trypanosoma brucei); assay: SPR; 2 mM citrate, steady state
TbPIP39 wild type [2] = biological target: T1, TbPIP39 wild type; assay: SPR; 2 mM citrate

B1: TbPTP1 (enzyme)
chain: MSTAKSFPMAQLSTRAQYSRMQREFVQLQRQENPRNINFTTSLKNRHKNRYLDILANEETIYPPVLKAVGAQPGRYPYINGNLIDLDLPHTFVACQAPVPQGVPDFLETLSEKKVDLVVMLTKLREGGVLKAERYWPEEEEDSLSFPESGHDAIKVTRDAEASYEVDAELDIVRRPLVIHVPGKPMHRVLQVQYVGWPDHGVPESAASFDELLSVIKNCVTTSPILVHCSAGIGRTGTLIGAYAALLHIERGILTDSTVYSIVAAMKQKRFGMVQRLEQYAVIYMTVLGRLGVDISGLVSTLNLKA
B1 was tested, and the Kd (TbPIP39 wild type [1]) was 50.8 µM, the Kd (TbPIP39 wild type [2]) was 42 µM and the koff (TbPIP39 wild type [2]) was 0.05 s⁻¹.
